# According to patent US20180244769A1 (Ablynx, published 2018):
# B1: 1c113-Fc (pME 1c113-mIgG1Fc_LSF) (Fc fusion)
# chain: DYKDDDDKRSMAEVQLVESGGGLVQPGGSLTLSCAASGIAFNYYSMSWHRQAPGKQRTLVADISPGGHTEYEDSVKGRFTISRDNFKNTMTLHMNSLKPEDTAVYFCAARLRFEVSSNYWGQGTQVTVSSLEPRDCGCKPCICTVPEVSSEVSSVFIFPPKPKDVLLISLFPKVTCVVVDISKDDPEVQFSWFVDDVEVHTAQTQPREEQFNSTFRSVSELPIMHQDWLNGKEFKCRVNSAAFPAPIEKTISKTKGRPKAPQVYTIPPPKEQMAKDKVSLTCMITDFFPEDITVEWQWNGQPAENYKNTQPIMDTDGSYFVYSKLNVQKSNWEAGNTFTCSVLHEGLHNHHTEKSLSHSPGKGK
# notes: Used unconjugated or conjugated to Alexa647; also called WD1c113Fc; Nb 1c113-Fc
# B2: 3c23-Fc (Nb 3c23 fused to the Fc-domain of mouse IgG1) (Fc fusion)
# chain: EVQLVESGGGLVQAGGSLRLSCAASGRTFRHYAMGWFRQAPGKEREFVAAISSYGSTDYGDSVKGRFTISRDDAKNTVPLQMNSLKPEDTAVYYCAAADETLGAVPNFRLHEKYEYEYWGQGTQVTVSSA
# notes: Bivalent N-terminally FLAG-tagged Nb-Fc fusion protein made in HEK cells; Used unconjugated or conjugated to Alexa647; also called WD3c23Fc; Nb 3c23-Fc; not shown: N-terminal FLAG tag; Fc-domain of mouse IgG1
# What was measured:
# [1] = molecular target: human P2X7 (hP2X7) (human) (UniProt Q99572); experiment: flow cytometry on human peripheral blood lymphocytes of a single donor, CD4+ cells
# rat P2X7 (rP2X7) [2] = molecular target: T1, rat P2X7 (rP2X7) (Rattus norvegicus, UniProt Q64663 1-595); experiment: flow cytometry, HEK cells co-transfected with GFP and rP2X7, bound antibody detected with Alexa647 anti-mouse IgG; other quadrants: UL 1, LL 7.5, LR 21
# T1 sequence: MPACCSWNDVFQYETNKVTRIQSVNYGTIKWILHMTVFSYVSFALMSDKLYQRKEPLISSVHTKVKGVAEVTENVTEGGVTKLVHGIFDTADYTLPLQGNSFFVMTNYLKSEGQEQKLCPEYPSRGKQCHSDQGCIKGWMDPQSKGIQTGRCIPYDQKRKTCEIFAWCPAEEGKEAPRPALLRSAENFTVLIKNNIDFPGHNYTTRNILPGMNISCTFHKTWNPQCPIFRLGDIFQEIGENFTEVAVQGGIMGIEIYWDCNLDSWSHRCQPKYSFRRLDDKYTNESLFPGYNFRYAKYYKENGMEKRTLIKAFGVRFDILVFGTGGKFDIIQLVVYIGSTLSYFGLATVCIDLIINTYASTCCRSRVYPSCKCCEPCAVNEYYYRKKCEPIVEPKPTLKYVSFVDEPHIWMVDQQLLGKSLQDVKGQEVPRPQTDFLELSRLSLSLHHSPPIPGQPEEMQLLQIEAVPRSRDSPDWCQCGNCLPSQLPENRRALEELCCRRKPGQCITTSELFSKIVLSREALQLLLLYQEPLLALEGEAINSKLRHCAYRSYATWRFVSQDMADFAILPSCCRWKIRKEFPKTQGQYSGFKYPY
# [3] = molecular target: human P2X7 (hP2X7) (human) (UniProt Q99572); experiment: cell-based or functional assay
# [4] = molecular target: human P2X7 (hP2X7) (human) (UniProt Q99572); experiment: flow cytometry of whole blood of one donor, gate on lymphocytes, Alexa647 conjugate with anti-CD4; blocked = pre-incubated with excess unlabelled Nb-Fc (legend: 3 ug each of 1c113-Fc and 3c23-Fc); lower quadrants 43 and 55
# [5] = molecular target: human P2X7 (hP2X7) (human) (UniProt Q99572); experiment: flow cytometry of whole blood of one donor, gate on lymphocytes, Alexa647 conjugate with anti-CD4; unblocked = pre-incubated with control 1067-Fc; lower quadrants 32 and 33
# mouse P2X7 (mP2X7) [6] = molecular target: T2, mouse P2X7 (mP2X7) (mus musculus, UniProt Q9Z1M0 1-595); experiment: flow cytometry, HEK cells co-transfected with GFP and mP2X7, bound antibody detected with Alexa647 anti-mouse IgG; other quadrants: UL 64, LL 26, LR 5.5
# T2 construct: Also used here for endogenous P2X7 on Yac-1 cells, primary mouse lymphocytes and macrophages
# T2 chain: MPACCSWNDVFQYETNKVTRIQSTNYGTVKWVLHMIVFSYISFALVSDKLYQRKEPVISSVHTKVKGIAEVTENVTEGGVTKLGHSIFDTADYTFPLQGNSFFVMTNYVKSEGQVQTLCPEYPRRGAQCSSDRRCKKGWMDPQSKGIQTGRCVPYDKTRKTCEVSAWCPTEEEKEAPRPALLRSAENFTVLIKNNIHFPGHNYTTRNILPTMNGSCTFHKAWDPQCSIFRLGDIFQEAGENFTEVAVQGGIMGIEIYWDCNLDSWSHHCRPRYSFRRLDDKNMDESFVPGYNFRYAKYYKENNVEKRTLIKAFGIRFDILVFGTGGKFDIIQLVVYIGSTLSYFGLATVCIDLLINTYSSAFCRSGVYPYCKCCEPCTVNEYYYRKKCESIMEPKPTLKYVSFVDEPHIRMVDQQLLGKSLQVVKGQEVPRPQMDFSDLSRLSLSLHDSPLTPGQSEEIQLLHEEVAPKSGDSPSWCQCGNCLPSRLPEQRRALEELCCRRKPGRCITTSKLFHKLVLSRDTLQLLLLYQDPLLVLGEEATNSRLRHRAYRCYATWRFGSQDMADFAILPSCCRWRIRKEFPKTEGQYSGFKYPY
# [7] = molecular target: human P2X7 (hP2X7) (human) (UniProt Q99572); experiment: flow cytometry on human peripheral blood lymphocytes of a single donor, CD4- cells
# [8] = molecular target: human P2X7 (hP2X7) (human) (UniProt Q99572); experiment: flow cytometry, HEK cells co-transfected with GFP and hP2X7, bound antibody detected with Alexa647 anti-mouse IgG; other quadrants: UL 0.5, LL 9, LR 19
# [9] = molecular target: human P2X7 (hP2X7) (human) (UniProt Q99572); experiment: flow cytometry of whole blood of one donor, gate on lymphocytes, Alexa647 conjugate with anti-CD4; unblocked = pre-incubated with control 1067-Fc
# [10] = molecular target: human P2X7 (hP2X7) (human) (UniProt Q99572); experiment: flow cytometry of whole blood of one donor, gate on lymphocytes, Alexa647 conjugate with anti-CD4; unblocked = pre-incubated with control 1067-Fc; lower quadrants 24 and 19
# [11] = molecular target: human P2X7 (hP2X7) (human) (UniProt Q99572); experiment: flow cytometry of whole blood of one donor, gate on lymphocytes, Alexa647 conjugate with anti-CD4; blocked = pre-incubated with excess unlabelled Nb-Fc (legend: 3 ug each of 1c113-Fc and 3c23-Fc); lower quadrants 44 and 54
# mouse P2X7 (mP2X7) [12] = molecular target: T2, mouse P2X7 (mP2X7); experiment: flow cytometry, HEK cells co-transfected with GFP and mP2X7, detection with Alexa647 anti-mouse IgG
# From the text: (§1) In order to verify the specificity of the selected Nbs and to determine whether the Nbs would bind also to mouse P2X7 or rat P2X7, HEK cells were co-transfected with expression constructs for GFP and either hP2X7, mP2X7, or rP2X7. Twenty four hours post transfection cells were stained with Nb-Fc fusion proteins or mAb L4 before FACS analyses (FIG. 3). […] By comparison, previously described Nbs 13A7 and 14D5 (WO 2010/070145) recognize mP2X7, but not hP2X7 or rP2X7, mAb L4 recognizes hP2X7 and rP2X7, but not mP2X7.
# [13] = molecular target: human P2X7 (hP2X7) (human) (UniProt Q99572); experiment: flow cytometry, HEK cells co-transfected with GFP and hP2X7, bound antibody detected with Alexa647 anti-mouse IgG; other quadrants: UL 0.8, LL 12, LR 15
# rat P2X7 (rP2X7) [14] = molecular target: T1, rat P2X7 (rP2X7); experiment: flow cytometry, HEK cells co-transfected with GFP and rP2X7, detection with Alexa647 anti-mouse IgG
# From the text: as §1
# [15] = molecular target: human P2X7 (hP2X7) (human) (UniProt Q99572); experiment: flow cytometry of whole blood of one donor, gate on lymphocytes, Alexa647 conjugate with anti-CD4; unblocked = pre-incubated with control 1067-Fc; lower quadrants 23 and 19
# [16] = molecular target: human P2X7 (hP2X7) (human) (UniProt Q99572); experiment: flow cytometry, HEK cells co-transfected with GFP and hP2X7, bound antibody detected with Alexa647 anti-mouse IgG; other quadrants: UL 0.7, LL 12, LR 15
# [17] = molecular target: human P2X7 (hP2X7) (human) (UniProt Q99572); experiment: flow cytometry of whole blood of one donor, gate on lymphocytes, Alexa647 conjugate with anti-CD4; blocked = pre-incubated with excess unlabelled Nb-Fc (legend: 3 ug each of 1c113-Fc and 3c23-Fc); lower quadrants 44 and 55
# Sequence of human P2X7 (hP2X7) (human) (Q99572 whole entry): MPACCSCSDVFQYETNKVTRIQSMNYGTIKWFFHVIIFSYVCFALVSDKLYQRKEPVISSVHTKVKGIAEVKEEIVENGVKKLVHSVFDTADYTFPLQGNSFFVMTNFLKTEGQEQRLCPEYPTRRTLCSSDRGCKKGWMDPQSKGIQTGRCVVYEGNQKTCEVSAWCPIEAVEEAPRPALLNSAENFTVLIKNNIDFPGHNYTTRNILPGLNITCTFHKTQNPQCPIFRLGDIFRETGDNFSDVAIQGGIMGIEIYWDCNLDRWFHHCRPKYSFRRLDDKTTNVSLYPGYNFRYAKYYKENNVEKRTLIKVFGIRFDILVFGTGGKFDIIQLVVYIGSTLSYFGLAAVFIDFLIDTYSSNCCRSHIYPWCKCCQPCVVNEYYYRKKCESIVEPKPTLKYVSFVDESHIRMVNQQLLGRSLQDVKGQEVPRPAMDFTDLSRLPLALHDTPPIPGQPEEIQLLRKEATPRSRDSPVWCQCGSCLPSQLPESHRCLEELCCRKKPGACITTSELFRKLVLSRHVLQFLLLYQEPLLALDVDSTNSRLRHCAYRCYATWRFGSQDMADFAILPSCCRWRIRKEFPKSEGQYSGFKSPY
molecule,measurement,setting,value
mAb L4 (anti-hP2X7 mouse monoclonal antibody),MFI,[1],11
same,% of cells in the GFP+ / anti-mIgG A647+ quadrant (upper right),rat P2X7 (rP2X7) [2],70%
same,"IC50 [nM], blockade of L-selectin (CD62L) shedding in transfected HEK cells, 4 mM ATP",[3],> 19 nM
same,"IC50 [ng/ml], blockade of L-selectin (CD62L) shedding in transfected HEK cells, 4 mM ATP",[3],> 2800 ng/mL
same,"% of lymphocytes in the CD4+ / AF647+ quadrant (upper right), blocked",[4],0.6%
same,"% of lymphocytes in the CD4- / AF647+ quadrant (upper left), blocked",[4],0.9%
same,"% of lymphocytes in the CD4+ / AF647+ quadrant (upper right), unblocked",[5],22%
same,"% of lymphocytes in the CD4- / AF647+ quadrant (upper left), unblocked",[5],13%
same,% of cells in the GFP+ / anti-mIgG A647+ quadrant (upper right),mouse P2X7 (mP2X7) [6],4.8%
same,MFI,[7],10
same,% of cells in the GFP+ / anti-mIgG A647+ quadrant (upper right),[8],72%
B1,"MFI (AF647) of CD4+ lymphocytes, unblocked",[9],17
same,"MFI (AF647) of CD4- lymphocytes, unblocked",[9],14
same,"IC50 [nM], blockade of L-selectin (CD62L) shedding in transfected HEK cells, 4 mM ATP",[3],> 35 nM
same,"IC50 [ng/ml], blockade of L-selectin (CD62L) shedding in transfected HEK cells, 4 mM ATP",[3],> 2800 ng/mL
same,"% of lymphocytes in the CD4+ / AF647+ quadrant (upper right), unblocked",[10],35%
same,"% of lymphocytes in the CD4- / AF647+ quadrant (upper left), unblocked",[10],22%
same,"% of lymphocytes in the CD4+ / AF647+ quadrant (upper right), blocked",[11],0.7%
same,"% of lymphocytes in the CD4- / AF647+ quadrant (upper left), blocked",[11],0.8%
same,binding result,mouse P2X7 (mP2X7) [12],no binding
same,% of cells in the GFP+ / anti-mIgG A647+ quadrant (upper right),[13],72%
same,binding result,rat P2X7 (rP2X7) [14],no binding
B2,"MFI (AF647) of CD4+ lymphocytes, unblocked",[9],17
same,"MFI (AF647) of CD4- lymphocytes, unblocked",[9],14
same,"IC50 [nM], blockade of L-selectin (CD62L) shedding in transfected HEK cells, 4 mM ATP",[3],0.6 nM
same,"IC50 [ng/ml], blockade of L-selectin (CD62L) shedding in transfected HEK cells, 4 mM ATP",[3],50 ng/mL
same,"fold enhanced potency to block activation of P2X7, Nb-Fc fusion protein against its monovalent counterpart",[3],5 to 20 fold
same,molar inhibition potency relative to monovalent 3c23 (CD62L shedding),[3],4 fold
same,"% of lymphocytes in the CD4+ / AF647+ quadrant (upper right), unblocked",[15],35%
same,"% of lymphocytes in the CD4- / AF647+ quadrant (upper left), unblocked",[15],24%
same,% of cells in the GFP+ / anti-mIgG A647+ quadrant (upper right),[16],72%
same,binding result,mouse P2X7 (mP2X7) [12],no binding
same,"% of lymphocytes in the CD4+ / AF647+ quadrant (upper right), blocked",[17],0.4%
same,"% of lymphocytes in the CD4- / AF647+ quadrant (upper left), blocked",[17],0.7%
same,binding result,rat P2X7 (rP2X7) [14],no binding
